# Data reported in IntAct's records for PubMed 15020407.
# B1: High osmolarity signaling protein SHO1 (Saccharomyces cerevisiae), P40073 (parent)
# chain: MSISSKIRPTPRKPSRMATDHSFKMKKFYADPFAISSISLAIVSWVIAIGGSISSASTNESFPRFTWWGIVYQFLIICSLMLFYCFDLVDHYRIFITTSIAVAFVYNTNSATNLVYADGPKKAAASAGVILLSIINLIWILYYGGDNASPTNRWIDSFSIKGIRPSPLENSLHRARRRGNRNTTPYQNNVYNDAIRDSGYATQFDGYPQQQPSHTNYVSSTALAGFENTQPNTSEAVNLHLNTLQQRINSASNAKETNDNSNNQTNTNIGNTFDTDFSNGNTETTMGDTLGLYSDIGDDNFIYKAKALYPYDADDDDAYEISFEQNEILQVSDIEGRWWKARRANGETGIIPSNYVQLIDGPEEMHR
# partner: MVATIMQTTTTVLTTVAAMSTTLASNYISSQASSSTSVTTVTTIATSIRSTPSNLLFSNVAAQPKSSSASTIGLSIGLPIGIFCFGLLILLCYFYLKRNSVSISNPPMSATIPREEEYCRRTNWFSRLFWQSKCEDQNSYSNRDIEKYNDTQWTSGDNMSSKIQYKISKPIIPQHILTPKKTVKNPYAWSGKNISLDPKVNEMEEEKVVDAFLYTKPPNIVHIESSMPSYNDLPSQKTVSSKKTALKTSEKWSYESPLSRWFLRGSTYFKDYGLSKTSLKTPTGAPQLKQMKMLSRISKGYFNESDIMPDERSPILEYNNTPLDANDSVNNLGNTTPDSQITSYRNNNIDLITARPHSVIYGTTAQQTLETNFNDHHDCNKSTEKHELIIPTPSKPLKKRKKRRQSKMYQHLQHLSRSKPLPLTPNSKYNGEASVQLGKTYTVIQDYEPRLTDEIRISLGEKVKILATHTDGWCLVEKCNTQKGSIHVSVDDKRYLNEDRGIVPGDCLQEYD
# Variants of: B1
# Conditions: with fus1_yeast FUS1, P11710
row,Variant,effect of a mutation on the interaction
1,P352A,decreasing interaction
